Test: soluble on expression in E. coli; label from the status in PepcDB or PDB records

| Sequence | soluble on expression in E. coli |
| --- | --- |
| VGYGDITQVETSGASSKTSRQDKLEYDGVRASHTMAQTDAGRMEKYKSFINNVAKKHVVDPAVIAAIISRESRAGNVIFNTTPPGWGDNYNGFGLMQVDKRYHEPRGAWNSEEHIDQATGILVNFIQLIQKKFPSWSTEQQLKGAIAAYNTGDGRVESYESVDSRTTGKDYSNDVVARAQWYKKNGF | soluble |
| MSLGLLDNVKKMVKKEATENPQQTSDDQKQVQAIHVTNGIDPKVIDAMNERMTKIENDLGKLSGEMEGQKKTLNDIKNELEGIKENVKMVVSLYELVSRDFNPFMDKTPEEIRGITDTLAEQVNNVKQLVEAAIKDLRELYGVPDIDQFIQMEEKKEGHHHHHH | soluble |
| MLSRKKTKNEVSKPAEVQGKYVKKETSPLLRNLMPSFIRHGPTIPRRTDLCLPDSSATAFSASGDGIVSRNQSFLRTAIQRTPHEVMRRESHRLSAPSYLVRSLADVPRECGSSQSFLTEVNFAVENGDSGSRYFFSDNFFDGQRRRPLGDRAQEDYRYYEYNHDLFQRMPQSQGRHTSGIGRVTATSLGNLTNHGSEDLPLPPGWSVDWTMRGRKYYIDHNTNTTHWSHPLEREGLPPGWERVESSEFGTYYVDHTNKRAQYRHPCAPSVPRYDQPPPITYQPQQTERNQSLLVPANPYHTAEIPDWLQVYARAPVKYDHILKWELFQLADLDTYQGMLKLLFMKELEQIVKLYEAYRQALLTELENRKQRQQWYAQQHGKTFLS | soluble |
| MPKKRENRGRRKGDKGHVGYISCDQCGARVPEDKAVCVTKMYSPVDASLASELEKKGAIIARYPVTKCYCVNCAVFLGIIKIRAENERKQKARLRLEHHHHHH | not soluble |
| MSLNAEEKKGLQRAIEEITEIAKGFGLDFYPMRYEICPAEIIYTFGAYGMPTRFSHWSFGKQFHKMKLHYDLGLSKIYELVINSDPCYAFLLDSNSLIQNKLIVAHVLAHCDFFKNNCRFQNTKRDMVESMAATAERIKHYEQVHGIKEVESFLDAILSIQEHIDPSLVRPKLQWSVDDEEEEIEEAATPYDDLWSLDEKKPKKQVKKSKKPFPPRPEKDILLFIEEHSRELEPWQRDILTMMREEMLYFWPQLETKIMNEGWASYWHQRIIRELDLTSDEAIEFAKLNAGVVQPSKTGINPYYLGLKIFEDIEKRYNNPTEEMKKMGVQPDSGREKMFEVREIESDISFIRNYLTKELVMREDLYLFQKQGRDYKIIDKQWKSVRDQLVSMRVNGGFPYLTVNDGDYMKNNELYIKHWYEGIELDLKYLEKVLPYLFQLWGRSVHIESVLEDKEVMFSYDGKGVHRRYLEGHHHHHH | not soluble |
| GTTKHSKLLILGSGPAGYTAAVYAARANLQPVLITGMEKGGQLTTTTEVENWPGDPNDLTGPLLMERMHEHATKFETEIIFDHINKVDLQNRPFRLNGDNGEYTCDALIIATGASARYLGLPSEEAFKGRGVSACATCDGFFYRNQKVAVIGGGNTAVEEALYLSNIASEVHLIHRRDGFRAEKILIKRLMDKVENGNIILHTNRTLEEVTGDQMGVTGVRLRDTQNSDNIESLDVAGLFVAIGHSPNTAIFEGQLELENGYIKVQSGIHGNATQTSIPGVFAAGDVMDHIYRQAITSAGTGCMAALDAERYLDGLADAK | soluble |
| MGSKRVCPDANNSVKSKKAKTLDFLAHPRRKIAIQFFYLGWEHDGLVQQPHTQNTVENHIMQALIKTHLIEDWTKCDFSRCGRTDKGVSAFKQTAAMVVRSLCPGDSGVFWSDSTQEHQKVDYKASGEELPYVKMLNGVLPKTIRVFAWAPVAQTFNARFDCNRRTYKYSFAKADLNLEKMRQGAELLVGEHDFSNFCQIDMNEKRLLQSYVRKVYEVKVEQVSTHPENDMYSMVELTVSGSGFLWHMIRYIVTILQEIGRENEQPSLISQLLDLKKYPSRPQYTLASDTPLCLFDCGYKSEDVEWKVHDYTLKSTVTGLQKTWATYQARSRMMENMLGELTGMAEFSSGDANKGLHEFVQDRPIPSNYIRFENRKMCESLESKKEKMAEKKKNGEESSDKL | not soluble |
| MSLSIWGLVNEEDAEIDEDDLSKQEDGGEQPLRKVRTLAQSKPSDKEVILKTDGTFGTLSGKDDSIVEEKAYEPDLSDADFEGIEASPKLDVSKDWVEQLILAGSSLRSVFATSKEFDGPCQNEIDLLFSECNDEIDNAKLIMKERRFTASYTFAKFSTGSMLLTKDIVGKSGVSIKRLPTELQRKFLFDDVYLDKEIEKVTIEARKSNPYPQISESSLLFKDALDYMEKTSSDYNLWKLSSILFDPVSYPYKTDNDQVKMALLKKERHCRLTSWIVSQIGPEIEEKIRNSSNEIEQIFLYLLLNDVVRASKLAIESKNGHLSVLISYLGSNDPRIRDLAELQLQKWSTGGCSIDKNISKIYKLLSGSPFEGLFSLKELESEFSWLCLLNLTLCYGQIDEYSLESLVQSHLDKFSLPYDDPIGVIFQLYAANENTEKLYKEVRQRTNALDVQFCWYLIQTLRFNGTRVFSKETSDEATFAFAAQLEFAQLHGHSLFVSCFLNDDKAAEDTIKRLVMREITLLRASTNDHILNRLKIPSQLIFNAQALKDRYEGNYLEGHHHHHH | not soluble |
| GPGSMKLLKFVNSDAPHTLADVQLRNQRLWFPCRHGNAAVAAKSWTLTAASPASVSGGYWLLDDDSQPICEITDVLLALPETAANAAGSSGTFAPRGVTDKDVDGIDFRSKMGRQMERERATYGATSKTATKSARTMMNAEEMTEKKNERMKREREAVAEAIEDNDASVMEPRKKERKHSKK | soluble |
| MKAVINNTNPENTPPTRAIKRLERDVLRMGALVEQSFRLSHQALFARDLTAAEELPRLDKKIDRFYRQIESDCTSIITLQAPTAQDLRCLSAFMQLVRDLERIGDYAKDLAEIAIKIFPYPPHASLPEIALMSNNAQAMLATSLLALADLDEINGRRLKYLDDDVDHAYNQLYHTLAHQKDVPGVIEPILLLTLAIRCLERMADHATNIGQRVAYIVTGQR | not soluble |
| MKRSSVFSFLVAFLLVAGCSHKMDNKTVAGDVSAKTVQTAPVTTEPAPEKEEPKQEPAPVVEEKPAVESGTIIASIYFDFDKYEIKESDQETLDEIVQKAKENHMQVLLEGNTDEFGSSEYNQALGVKRTLSVKNALVIKGVEKDMIKTISFGETKPKCAQKTRECYKENRRVDVKLMK | not soluble |
| MIREAQRSELPAILELWLESTTWGHPFIKANYWRDCIPLVRDAYLANAQNWVWEEDGKLLGFVSIMEGRFLAAMFVAPKAVRRGIGKALMQYVQQRYPHLMLEVYQKNQPAIDFYRAQGFHIVDCAWQDETQLPTWIMSWPVVQTL | not soluble |
| MGSDKIHHHHHHMLELTDDLRIGHPVIDADHQRLIEIINEFLEHSNEVNPQILHETLKSLLAYGREHFAREEGIQRQCLYPYQQGHSNEHKSLLDQVREIARAYFVAKTKPLNATSVQDVNELLKAWLIGHVKKFDTSMRDWVAPSLDMDAPRIKLASPDLAALIISPNERSRARLADLLSELGASKVLQAEDSITGLGMAFGDPVPDFIFCDLETEPLDGGAFAGALRGSNKAYITRIPLLLLHDAEDAEAIQNAMAAGASGVYPKSFNPTNLGRLLNQLLLR | not soluble |
| MRGFLSGEFELSSVEDAEVVIINSCGVIDFTERKIIRRMLDLKREGKKVVLAGCLTRISKEALSVADSALSPDNLDMVVDAVYSALNGRKLFTERRFIDKAEFSHLKCRLRENAIAIVSISEGCLGKCSFCATKFARGRLRSFSMDAIVREAERAVRAGYREIQLTSQDTGAYGMDKGRAMLPELLRKISEIEGEFRVRVGMMNPQHAVRMLDELINAYSSEKIYKFLHIPVQSGDNRILEDMKRNHTVEDYVEVVEAFRNSFDDVLISTDIIVGFPTETEEAFWKSYELIKETRPDIVNITRYSARKGTPAARLRDIPGWIKKERSRKLTDLMRKIGLENNKRFVGKKLRVLVTKEGKNGRNLARMNSYRAVVTEGAVGEFVEVKIKDCRFNYLIGQLAAEQPQLEHHHHHH | not soluble |
| SKMTYADGTPIANIKSDLIRTRINGDQMSPLLKKAIISTEDEYFEEHHGVVPKALVRALISDATGIGGSSGGSTLTQQLVKQQILTDETTFKRKANEILLALRIEKYFSKDEIVTTYLNVSPFGRNNKGENIAGVEEAAKGLFGKSAKDLNLPQAAFIAGLPQSPIVYTPYTNT | not soluble |
| MREILNHFDRPLNKKNSFQKIQNLSCQTHTKRFYREVKISCEEGGFSVLLDGCPVKTPAKRHFCLPTEVFAAFVAEEFENQKQVIDPAKMPMTRLVNTVIDGIADNMQAVFEDLLRFVACDMIFYRAQTPKELVQRQCEQWDPLLDWAEEKLGARFHVTEGLMHIEQSRESIQAVSNYLRKVESPYMLAALHTITTLTGSALIALAFSEGKIDSEHAWKIAHLDENWMMEQWGIDEETLARSSHKKSEFDAAGTIITTCLLEHHHHHH | not soluble |
| DIVMTQSPLSLPVTPGEPASISCRSSQSIVHSNGHTYLEWYLQKPGQSPRLLIYQVSTRFSGVPDRFSGSGSGTDFTLKISRVEAEDVGVYYCFQASLVPLTFGQGTKLEIKRTVAAPSVFIFPPSDEQLKSGTASVVCLLNNFYPREAKVQWKVDNALQSGNSQESVTEQDSKDSTYSLSSTLTLSKADYEKHKVYACEVTHQGLSSPVTKSFNRGECAAADYKDDDD | soluble |
| MDAYEIIQYIGDAKKQTLVKVTLKGQLKEVTFPETIKVFNNCKTGTLFGDWADVKPFLEANKEKIEDYVVENDARNSAIPFLDLKDINARIEPGALIREKVEIGDQAVIMMGAILNIGAVVGAGTMIDMGAVLGGRATVGKHCHIGAGTVLAGVIEPPSAAPVVIENEVVIGANAVVLEGVRVGEGAVVAAGAVVVEDVPAHTVVAGVPAKVIKQIDDKTKSKTEILEELRKL | soluble |
| MGSDKIHHHHHHMRLVLEEPFKRLWNGRDPFEAVEALQGKVYRELEGRRTLRTEVDGRGYFVKIHRGIGWGEIAKNLLTAKLPVLGARQEWQAIRRLHEAGVATMTAVAYGERGSDPARQHSFIVTEELAPTVDLEVFSQDWRERPPPPRLKRALVEAVARMVGDMHRAGVNHRDCYICHFLLHTDKPVSADDFRLSVIDLHRAQTRDATPKRWRNKDLAALYFSALDIGLTRRDKLRFLRTYFRRPLREILRDEAGLLAWMERKAEKLYERKQRYGDLL | not soluble |
| MAREGCLALNVECRGRRVKFEARMETLPNGRQILVDRVVFPDSVAVLPLVEKDGEWHVVLVRQFRPSIGKWTLEAPAGTLKEGETPEAAAARELEEEAGLKAKALVRVGGGHVSPGYSTEYIHLFLAYSLEKGEMSPEEHEVIEGVVEMRLSEALESIESGVIEDLKTIALVMAAASRVHQLEAGGGV | soluble |
| MGSDKIHHHHHHAAEKTVVNISKVDGMPWFNRMGEGVVQAGKEFNLNASQVGPSSTDAPQQVKIIEDLIARKVDAITIVPNDANVLEPVFKKARDAGIVVLTNESPGQPSANWDVEIIDNEKFAAEYVEHMAKRMGGKGGYVIYVGSLTVPQHNLWADLLVKYQKEHYPDMHEVTRRMPVAESVDDSRRTTLDLMKTYPDLKAVVSFGSNGPIGAGRAVKEKRAKNKVAVYGMMIPSQAASLIKSGDITEGITYDPATAGYALAAVASTLLNGKTIEPGFELKELGKAEVDSDKHIIRFHKVLLVNKDNIDSLY | not soluble |
| MNAFNLIIIGDEILHGSSQDKHFAFFKSLLESKGLKLNQVQYLPDEPDLLVRQLRRSFSDGMPTFVTGGIGATPDDHTRQAAAAALDLPVVRHSEAAKFIEGITQKRGEPLDSPEHAQRLKMADFPEGAELVPNPFNNIAGFSIREHYFFPGFPVMAHPMAEWVLETYYADRFNQTERGSRSVYVFEQPESRITPLMEHIEQTYPGVRSYSLPSVGWTHSDGTQVKPHIEFGIKAEGEAVNLLDAAWAEVLHSLDGLGAELKNRVN | not soluble |

From the DeepSol protein solubility set
